Tests used:
[1] = target: T1, B7-H3 protein (Sino Biological, 11188-H08H) (UniProt Q5ZPR3 29-461); assay: ELISA, protein coated at 2 ug/mL; legend: N/A: No binding activity detected
T1 construct: Bought protein
T1 sequence (looked up): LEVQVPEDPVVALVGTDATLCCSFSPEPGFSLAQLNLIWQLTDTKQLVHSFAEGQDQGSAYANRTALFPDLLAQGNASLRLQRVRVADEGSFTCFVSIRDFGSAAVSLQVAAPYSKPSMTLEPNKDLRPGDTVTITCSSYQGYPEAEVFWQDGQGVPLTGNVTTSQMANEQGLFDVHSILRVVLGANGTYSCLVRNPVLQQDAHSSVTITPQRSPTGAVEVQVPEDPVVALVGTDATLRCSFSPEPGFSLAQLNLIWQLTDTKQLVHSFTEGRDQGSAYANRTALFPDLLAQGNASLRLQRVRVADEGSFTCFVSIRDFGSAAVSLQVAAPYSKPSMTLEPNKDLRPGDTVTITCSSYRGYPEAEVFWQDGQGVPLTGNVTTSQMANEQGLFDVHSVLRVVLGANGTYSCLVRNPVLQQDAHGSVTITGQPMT
Method: (§1) The specific procedures were as follows:
(§2) One day before the experiment, 30 μL of protein dilutions with a final concentration of 2 μg/mL (B7-H1 (i.e., PD-L1), B7-H2, B7-H3, B7-H4, and B7-DC (all proteins were purchased from Sino Biological Inc., catalog numbers 10084-HNAH, 11559-H08H, 11188-H08H, 10738-H08H, and 10292-H08H-B, respectively)) were added to the ELISA plates and the plates were incubated overnight at 4° C. The next day, the ELISA plate was rinsed three times with PBST, then blocked with 150 μL of PBS containing 5% skim milk powder at room temperature for 2 hours. […] The plates were washed three times with PBST, and 30 μL of 1:7000 diluted anti-human IgG Fc-HRP secondary antibody was added per well, followed by incubation at room temperature for 30 minutes. After washing the plate six times with PBST, TMB was added for color development, and the reaction was terminated by adding 2M HCl. The absorbance was read at a wavelength of 450 nm using a microplate reader (Molecular Devices, SpecterMax 190).

[2] = target: T2, B7-H2 protein (Sino Biological, 11559-H08H) (UniProt O75144 19-258); assay: as above
T2 construct: Bought protein
T2 sequence (looked up): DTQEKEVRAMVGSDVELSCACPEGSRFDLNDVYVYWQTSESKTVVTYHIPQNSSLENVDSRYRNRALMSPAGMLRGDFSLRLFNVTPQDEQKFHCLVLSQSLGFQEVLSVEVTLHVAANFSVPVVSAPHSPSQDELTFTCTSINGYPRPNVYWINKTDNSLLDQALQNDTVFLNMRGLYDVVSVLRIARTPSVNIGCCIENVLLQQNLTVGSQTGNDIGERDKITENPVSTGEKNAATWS
Method: as §1, §2

[3] = target: T3, B7-H4 protein (Sino Biological, 10738-H08H) (UniProt Q7Z7D3 25-258); assay: as above
T3 construct: Bought protein
T3 sequence (looked up): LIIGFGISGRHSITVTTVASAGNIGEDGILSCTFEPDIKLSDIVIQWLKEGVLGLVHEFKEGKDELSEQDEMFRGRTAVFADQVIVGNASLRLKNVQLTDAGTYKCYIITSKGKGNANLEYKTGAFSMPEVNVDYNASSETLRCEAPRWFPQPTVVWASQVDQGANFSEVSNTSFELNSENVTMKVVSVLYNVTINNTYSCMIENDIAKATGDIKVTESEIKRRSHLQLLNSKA
Method: as §1, §2

[4] = target: T4, B7-DC protein (Sino Biological, 10292-H08H-B) (UniProt Q9BQ51 20-220); assay: as above
T4 construct: Bought protein
T4 sequence (looked up): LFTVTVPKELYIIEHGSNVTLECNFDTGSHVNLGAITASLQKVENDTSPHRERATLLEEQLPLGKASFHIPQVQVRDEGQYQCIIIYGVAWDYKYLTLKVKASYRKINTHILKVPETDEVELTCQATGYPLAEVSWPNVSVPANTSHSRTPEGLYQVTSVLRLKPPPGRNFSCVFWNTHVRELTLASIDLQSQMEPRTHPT
Method: as §1, §2

mouse PD-L1 on cells = target: T5, mouse PD-L1 on cells (mouse, UniProt Q9EP73 19-290); assay: flow cytometry on mouse PD-L1-CHO cells
T5 construct: whole, on cells; also called mouse PD-L1-CHO cells
Method: The cells were resuspended with the prepared FACS buffer and counted, and the cell suspension density was adjusted to 2×10⁶ cells/mL. 100 μL of mouse PD-L1-CHO cells and cynomolgus monkey PD-L1-CHO cells were added per well to the 96-well plates, respectively. The plates were centrifuged at 300 g to remove the supernatant. […] The incubated cell mixture was centrifuged at 300 g to remove the supernatant, 200 μL of FACS buffer was added to corresponding wells, and the cells were resuspended with a multichannel pipette. The centrifugation, resuspension and washing steps were repeated twice, and the cells were centrifuged at 300 g to remove the supernatant. The PE-labeled anti-human IgG Fc flow antibody (Abcam, ab98596) was added, and the cells were pipetted to mix with a multichannel pipette and incubated at 4° C. for 30 minutes. The cells were centrifuged at 300 g to remove the supernatant, and FACS buffer was added to resuspend the cells. The centrifugation, resuspension and washing steps were repeated twice, and 200 μL of FACS buffer was added per well to resuspend the cells.

human PD-L1 on cells = target: T6, human PD-L1 on cells (human, UniProt Q9NZQ7 19-290); assay: flow cytometry on HCC827 cells
T6 construct: whole, on cells; Overexpressed on CHO cells or present on HCC827 tumor cells; the cell is named under assay; also called human PD-L1-CHO cells; PD-L1 protein on HCC827 cells
T6 sequence (Q9NZQ7 19-290): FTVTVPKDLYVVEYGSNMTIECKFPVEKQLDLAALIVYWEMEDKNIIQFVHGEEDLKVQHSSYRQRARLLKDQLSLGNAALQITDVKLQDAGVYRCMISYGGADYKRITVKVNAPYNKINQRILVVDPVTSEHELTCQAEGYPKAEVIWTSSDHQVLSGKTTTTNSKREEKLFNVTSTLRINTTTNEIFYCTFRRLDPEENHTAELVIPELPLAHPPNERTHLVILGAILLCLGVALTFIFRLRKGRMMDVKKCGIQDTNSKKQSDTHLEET
Method: The cells were resuspended in the prepared FACS buffer and counted, and the cell suspension density was adjusted to 2×10⁶ cells/mL. 100 μL of HCC827 cells were added per well to 96-well plates. The plates were centrifuged at 300 g to remove the supernatant. […] The incubated cell mixture was centrifuged at 300 g to remove the supernatant, 200 μL of FACS buffer was added to corresponding wells, and the cells were resuspended with a multichannel pipette. The centrifugation, resuspension and washing steps were repeated twice, and the cells were centrifuged at 300 g to remove the supernatant. […] The incubated cell mixture was centrifuged at 300 g to remove the supernatant, 200 μL of FACS buffer was added to corresponding wells, and the cells were resuspended with a multichannel pipette. The centrifugation, resuspension and washing steps were repeated twice, and the cells were centrifuged at 300 g to remove the supernatant. The PE-labeled anti-biotin flow antibody (Abcam) was added, and the cells were pipetted to mix with a multichannel pipette and incubated at 4° C. for 30 minutes. The cells were centrifuged at 300 g to remove the supernatant, and FACS buffer was added to resuspend the cells. The centrifugation, resuspension and washing steps were repeated twice, and 200 μL of FACS buffer was added per well to resuspend the cells.

T5 sequence (Q9EP73 19-290): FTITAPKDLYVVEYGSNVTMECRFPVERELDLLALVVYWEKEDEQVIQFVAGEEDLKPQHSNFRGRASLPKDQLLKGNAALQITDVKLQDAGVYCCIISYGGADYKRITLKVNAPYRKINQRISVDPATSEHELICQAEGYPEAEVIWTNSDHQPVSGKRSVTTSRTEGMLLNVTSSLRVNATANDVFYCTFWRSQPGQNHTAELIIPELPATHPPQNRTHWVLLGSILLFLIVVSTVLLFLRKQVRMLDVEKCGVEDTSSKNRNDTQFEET

B1: m18 (antibody, human IgG1, V domains shown)
VH: EVQLVESGGGLVQPGGSLRLSCAASRTDSNIHGMHWYRQAPGKGREWVGMIFIDGNTIVTDSVKGRFTISRDNAKNTLYLQMNTLRAEDTAVYYCAADSRGYGRAWGQGTTVTVSS
notes: also called antibody m18; anti-PD-L1 antibody m18
binding result [1]: no binding | binding result [2]: no binding | binding result [3]: no binding | binding result [4]: no binding | binding result (mouse PD-L1 on cells): binds | binding result (human PD-L1 on cells): binds

From patent publication US20260028402A1 (SANYOU BIOPHARMACEUTICALS, published 2026)
